# In paper PMC12823590:
# Biological target: recombinant OsLIKE1-KD from E. coli (GST-OsLIKE1-KD and OsLIKE1-KD-His) (rice)
# Experiment: native gel or EMSA
substance,measurement,value
recombinant OsLIKE1-KD from E. coli (GST-OsLIKE1-KD and OsLIKE1-KD-His) (domain or fragment),stoichiometry N,2
